# Assay results published in the NTF2 design screens of Basanta et al. (2020).
# Test: protease stability score; higher = more stable; yeast display proteolysis, trypsin and chymotrypsin;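 also: relative to predicted unfolded state with 0 unfolded-like and 1 meaning tenfold more protease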
sequence,measurement,value
TEEEEAKHLAQRIIEEDLRTGDWSRELRQIDPDVKTRVGDKTFHGMSALHYLLKQIDHPKSFTTHHIEVQGDKIKIDGELEGNINGVRTKIHTIFIVRKVNGRWLVETIIFE,protease stability score,1.53
TEEEEDARRATEELVRIINTGDEDRWERLMDPDVRVEVGDKEIHGRETLSEIFKFKHKHLRIKMDIRDMRLIDGKVWVDIVIDVEFDGRRHIHKTTIVLIKVNGRWRLDEVRLH,protease stability score,1.77
TEEEEDLKEVLRVELETWHTGNWDEMRRLLDPHARLIFDGQTFHGRELAVKFFQELLTRFDVLHIIPQSVSVYNGRVEIHEEMHEVVDGQTIRRTYHVRSSKINGRWSVEVLVIQ,protease stability score,0.443
TEEEEEARRALEEWIHNLMTGDEKRELELADPHVRILIDINGREIHMHGWEQFERWVHEEMRRLGLDRFEVRLEHIEIQGDKSVLDGRINYNGVDERNNIILVVVDGKLRQIRIHVI,protease stability score,1.95
TEEEEEFHEILEHFLTQLHTGDWEEIIKNLDPNVLFHFNGVLFHGREEVSRFLVEWFDKIKGMRIHIHELRIVGDKATIDTRLDVGEKTHRVIIHIRKINGRWLITEIRIE,protease stability score,2.02
TEEEEEFHRMFELEVRAWRTGDEETIRRLFDPHARIDFNGRDVIGRDEFIKRFQELGVEVHDLKIHNFRIVGDKVHWDIRLDGTFNGKRTKLEIHLYAEKYDGQWFNKTEYYI,protease stability score,1.36
TEEEEEFKRTSHEIFYALHTGNWEILEKMFDPHVRTHINGKDVHGREEATRVMELWIEELGVKHIHIKSEHHDIQGEFVRIHFHIISRVGDKFIEIEIEMEIRKINGRWRFTSIRLDRR,protease stability score,1.42
TEEEEELHKILERMIKHLVTGDEEAILKLADPDVRVHRIIDGRELDIVGRENLRHWLHELLRQLGVDHIDVKSVTLQGDKIHMTGTMKWNGKTEETRIIFEVVNGRLKRMEFHEI,protease stability score,0.982
TEEEEELRRIEHLTIELIETGDEDTLKRLADPNARLNIEFNGVHIHSHGREEMARLLHEWYRTMGIKHEELKRSEIQGDKVILHTELRIGDKTVSTIIITLVINGRIKWIRIIIK,protease stability score,1.36
TEEEEEMRELTELWLNILHTGDEDRFRELADPRVRLHINGRHNHGREIFMEFFDRSLKILGADHRTIHRIRFIGDKIDIKGREYINGQETRATLHVIIVNGRIKFEEWRFD,protease stability score,0.989
TEEEEEMRKMSELYIRAILTGDEDEYTKLADPDDRVNFNGRKLVGRKEVKEWLRKLRDKFKNITLHHFEIKELRVYNGRIRMIAESEVNIGDKVWRFHLHFIFEKFDGVWVLTEESTE,protease stability score,1.64
TEEEEENMDFLHKWLERTRTGDEHEIKKLADPDVRLRVGNKEIHGRDLFARWAKEIRITHLDEKRFHIYNGKVDFDGINHVTVNGVDETRKVIFHLVKVDGVWRFKEVDIR,protease stability score,0.98
TEEEEESKKAVEDLLHTIKTGNEEHMDRLLDPNVRLHVGDKDFVGREAFRHFWHEEWERFKNIKVELEDVKIFNGRVQIVLRIDIGDKHHRLHVYADKINGRWFIKRVEIE,protease stability score,2
TEEEEHALTLMKEWVHNHETGNEDHLSHLMDPNYRWVQGDWHLHGMEDFSRELNKTLDKMGMTEHLRLKDFKVQGNFVEVIGTQHLHINGRTIKIDSTLKLNVINGRIHEVRYTLH,protease stability score,0.77
TEEEEHASRIARLWLDMLLTGDWHTLDRLLDPHVRLEVNGQERIGREQIIKFEEERKRQLRINDVRTRHIHSQGDKLHIVTEADGEIDGKRTNVDTRIQIKVVDGVVEEVKFDIK,protease stability score,0.736
TEEEEHIRRLAEELMHNIRTGDEDTLVDLFDPDTKLHVHQGDKEIVFHGMEEIFDWWEKLLSEIRIEIRIRSIKYIGDKAHVHTEVIWRFNGREHRIESEIEFVLINGKVERIHISFI,protease stability score,2.27
TEEEEHLHTLASKDLKAFMTGDWETHKKLADPHVRFELVVGEWRLILHGRERFIEFLIEVLEKMGVDHFHLQHVEVIGNFVRLNIKIEVGDKTHDTRIDLEYINGVIHDVRVEFK,protease stability score,2.02
TEEEEHSKTLAEELLRVLLTGDEDTLHELFDPHARFHYGDKLHIGREEVTKALREVYERIDHYEVKHLEIQGDKVHVDGEHHIGDKSIRVRVHAWIVNGVVKQYHEHSL,protease stability score,1.02
TEEEEHTDMVRRIWVEIAKTGDERSWEKYFDPNARMHIFFNGQEIELHGRETITKWLHETLTRIKGLRMEIEHFENIGDKVHMDTRFIIGDKERKSEVEIIVVDGRLKSVTIRHR,protease stability score,1.78
TEEEEHWKHLVELWLRAVETGDEHLLHRLLDPHVKIDYNGKELHGRETHIKIERHFRERYKGLRWEIKHHEIQGDKAHVDFLLNVNGREHRVRIEIIIVNGRVHQIHFDIN,protease stability score,2.23
TEEEEILHEELRRHKEALETGDEDRLRHLIDPRARMDVNGREFHGMEHIVHFLVEFLLKFKNVRFEIKDFTKIGEYIYVDIHIIVDGRRHHMTVVALKVDGRWRNRHLHID,protease stability score,1.18
TEEEEILREAYELFFKMMKTGDEHMKSRLADPNVRLHIGDKENHGMDEVIRVFREEHKRYKNLTLRHWHLEDSHVVNGRIILHYKMNVEVNGVEIETSVHVVIRKINGKWELESLSVE,protease stability score,0.882
TEEEEIVTRALDKFREDLDTGDWKSIKHNFDPDVRLVFENHSTHGRELAVTIAEHIFKRFDYVHDSRNEHIKFQGDKVEWHSHYDGTINGRRMEVRILLIVRKYNGVWIIEEYLIV,protease stability score,1.47
TEEEEIYERVARLWAEAMLTGDWKTETNLLDPHTRYDYDVDGKHIHLHGREHFKKMLEDLLRHLRFRIRVEEIHVYGEKVEVHGKLDIHVGDKTTHEHTSVQIYVVNGKMKSIRVHSH,protease stability score,1.49
TEEEEKSEHLIRLLLHILTTGDEDTYSWLLDPNAKLTFNGVEFHGREDLRRFWEEHLHRLGVDHRDIKDLKRQGDKVIIHNKIHVNGRTIHQEVEIEVINGKAKFNTVILE,protease stability score,0.412
TEEEEKSWRLAEWFFRIIETGNEHEQKRLADPHVQIHIQIDGRHIHLHGWEELMKELKRLGIKYHKIERLRVIGEKIDEEGRLEINGREHDVRIHILIINGRMNSIHIHIE,protease stability score,1.66
TEEEEKVMEIIEIILHVLKTGDEHLLENLIDPNARSEYGDKELHGREQILRFAWWVSHHIRLKHLHIDSMRVFNGRIEIHGHNIGEINGRESEIHLSLIMIKVDGQWKIHSMRFE,protease stability score,1.44
TEEEELAHEALRRFTREWVTGDEDLLQNLLDPHTKIEIDGRELHGWHEMVRYYRHLGFDVNEFHLHRFHIQGDKIRVDGELRFHVDGRTHTIRFTIVARKVNGKWLNTHEHYK,protease stability score,0.721
TEEEELAHHLVRLLIELWRTGDEEILRHLADPNVKLIYGDKTDHGREKSHRWMKELLDRYDHVEIIIRREEVQGEKAHSDVELVVNINGVREVYEVHLHFIVVNGKIREERIEVR,protease stability score,0.989
TEEEELEEKIARRFLTIWLTGDEERLRELADPNVRLEIDINGVTLEYHGRDELAHMFDHELKKLGFKHLHLESLRVINGVVHSNVRITFNGQERESKIINIVINGRLHTLILRWE,protease stability score,1.41
TEEEELLKKFMKDFIQKHVTGDWDSLYKMADPDVKWHINGQQSIGREEVHRMWSEKLKRIDHIEHFHDESIHVIDGRVTLRGRITGNVDGRRYDVEVDFHLFVVDGKLKQFHVHHQ,protease stability score,0.849
TEEEELLTRLARQILRWLLTGDEDKHSRMLDPRDRSVIGDKESVGMEESVKNWRIWLEEMRLKHVQLRDVRIVDGVVHLDIHLFGHINGVHIDRESRMDVYIVNGRIHRIRIIEH,protease stability score,1.3
TEEEELRRRHAKELLDIWRTGDEHLMSHLADPHVRSIIDGVTVIGRDEWMKYLRILREHLGVKHIEHKDFNIQGDKVDVHGTMHVNGREIEVRSHFYVIDGRVRSNEIRFH,protease stability score,0.256
TEEEELSELILELTERMIKTGDEKTLHRLMDPNARTVIGDKQDHGMRTIFNIMEELSERIKNARFSLKHIDVDGDKVKIWSTLNYDGRRWEVEIVARKIDGQWRLEEFRIR,protease stability score,0.626
TEEEELSRKAAEILDEAQQTGDEDSIRELVDPNVKYEINGRIFVGWQEMLHAFRLELRHIRLREVHIKREKRIGNWMFIDSSMDGEVNGVRTERKSELVFLKFDGQWSLHSMRIE,protease stability score,1.56
TEEEEMYHKFAHEIARNLVTGDEDRLLELADPHVKSNVNGVELHGMEHFLEFWIHIVKEIRVHLRITHVTVINGVVIHDSEYEFIVNGKRHTTRVEIWWVVVDGRVHRVELRFK,protease stability score,1.17
TEEEEQIKEMMEEMQHSYKTGDWRAISELLDPNVRMHIGDKEFHGREDLLRVFKHIRVKHLEIHHVRIIDGRAEVETTYTLVVDGVEHVHHTHIHSRKINGRWHIEEVYIH,protease stability score,2.02
TEEEETARHMVHEFYEVIKTGDEETFRKLLDPNTKLHVNGKERHGREAIDEMYHRFKNVRIHVEHVDVVDGKIDLRENWIQGDKETIVRIEAHKVDGRWELRSVHIH,protease stability score,1.36
TEEEEYLRKLTKDFIEAFLTGNWKEVARLLDPHTRLHVGEFEIHGREEMMKFMIELITRAGIKHQHIKSFETRIINGVVFLHVHMIVIVNGRNIERRLHVLFVKIDGRWTIEEVSEEHE,protease stability score,1.46
TEEEHFIKHATELWLRLLRTGDEHELSKMIDPHARVLIGDKNIHGRELASKFLSEFAHQIDHVEIRIKEVRTVDGKVDSDTRLDMHVDGQDIHHETRIISLKVDGKWLLQSFHFD,protease stability score,0.456
TEEEHIIDDFDKRLLHAFVTGNEDLLAKLADPNVRLSVKIGDKTIERHGMESFRNWLRRFHEEIRIEDHKSDEVRFYNGVLEHHGTVLGHVNGVRTKVHVLEIYFIINGRMRNIWIEVR,protease stability score,1.54
TEEEHLLKKLAELVWEAVETGDEDFLKKLVDPHTRLHVDGREHHGREDFIEILTRMGVDHHRLEHFRVIDGKLFIDGHFNFNGRYFRVHIIFIIINGRAKEFWMRTE,protease stability score,1.66
TEEEHLMKEMLDLWVEALMTGDEKLLSELMDPNTRFHLRYGDFLQDRHGRHIINHIIRHWRFHVFKIEDTKVFNGRAIADTHLDVEIDGRRVRTRTKVDLVTINGKIERLDLEID,protease stability score,0.902
TEEEHLVEEMARRMLHSWLTGDEETLERLLDPNVRLEMIIDGVELRLHGREDMSRWLREWVERVDHVEIEIKRIRLIGEKSILDGQIHERQGDKERVIKTEIIVVVVDGRIHNSKIIIR,protease stability score,1.14
TEEEHNVRIALSLYIETFKTGNEEVLRRRLDPNARLIFNGRDLHGRELIEDWIHEFHEKVPGLQIHRHEVKDWHVQGNKIDLDVHIDGVFDGKQTETRVILHILKVDGQWIMTVIEIR,protease stability score,1.35
TEEEHWALHLLERILHHMLTGNESFIKHLFDPDTRWEVNGVENIGMERHSKLFLHMRIESIEIRSIHVRIVGEYIHIDVEIDIRGIVNGQRVEYHKKIHVIISKVNGRWHIKHYHESDE,protease stability score,1.22
TEEEKDSDDAFRHWVHSMRTGDEDRLRELIDPNARLLVNGRELHGMEWIITILSKEIKELRFKDVRLRDRDIVGNYAEVDVEIDMTIGEKEDSRDVVIFVLKVNGRWVIKEMHIR,protease stability score,1.46
TEEEKELRHLYNRWLKDLQTGDEDSFRHLADPNVRLIVGDKDHHGWETSAQWMRELRERVDHLEIIVDSSHVINGRIESDTTIRLRVGDKTIEYRAEFEIDIVNGKMKRIVVREH,protease stability score,0.998
TEEEKEVEDLLRVVIHALQTGDEKKISELVDPNMRVKIGDKINHGWENAFEFHVRFIKELGVDHINIHPRHVRLIGDKVEVHLNLIIHVNGRDHETEIRLTAIKVNGRWHIESFEEQ,protease stability score,1.91
TEEEKFAEEMLRRFIENLITGDWRELKKLFDPDTKIVFNGREHHGMEWHIEFLREIRITHIEVRDMTLINGVAHANGHEIIIIGDKTLEMDTRINIVTINGRIHSIEIKQR,protease stability score,2.54
